The experiment has as its target superGmFLS2, C-terminal mEGFP (soybean (Glycine max)).

Turning to “NbBAK1 (BRASSINOSTEROID … 1-ASSOCIATED KINASE 1 of Nicotiana benthamiana), C-terminal 4xHA (receptor)”, the total flg22^Rso-induced ROS production in N. benthamiana fls2 leaves, against wild-type GmFLS2b was > 3 fold.
